The supplement of paper PMC7125110
± gives the standard error. For part of these data: Fewer inactive variants are shown than the library holds.

B1: glmS ribozyme (parent)
chain: AUAAAAGCGCCAGAACUACAGAAAUGUAGUUGACGAGGAGGAGGUUUAUCGAAUUUUCGGCGGAUGCCUCCAAA

Columns and labels:
Settings in all cases: with glucosamine-6-phosphate
glucosamine-6-phosphate [1] = variants of: B1; assay: kcat; higher = faster cleavage; RNA array
In short: (§1)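 Tiles bearing barcoded ribozyme variants, transcribed in situ by E. coli RNA polymerase on sequenced MiSeq chips, were imaged over ~14 h at 37 °C using a hybridised Cy3 probe. Glucosamine-6-phosphate was supplied at 40 μM to 10 mM in HEPES/KCl/Mg(OAc)2 buffer. kobs came from one- or two-exponential decay fits to normalised per-tile medians, and weighted Michaelis–Menten fits then provided kcat and KM.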

glucosamine-6-phosphate [2] = variants of: B1; assay: self-cleavage kobs at 160 uM GlcN6P; higher = faster cleavage; RNA array
In short: as §1

glucosamine-6-phosphate [3] = variants of: B1; assay: self-cleavage kobs at 640 uM GlcN6P; higher = faster cleavage; RNA array
In short: as §1

glucosamine-6-phosphate [4] = variants of: B1; assay: self-cleavage kobs at 2500 uM GlcN6P; higher = faster cleavage; RNA array
In short: as §1

glucosamine-6-phosphate [5] = variants of: B1; assay: self-cleavage kobs at 10000 uM GlcN6P; higher = faster cleavage; RNA array
In short: as §1

glucosamine-6-phosphate [6] = variants of: B1; assay: KM; higher = weaker cofactor use; RNA array
In short: as §1

glucosamine-6-phosphate [7] = variants of: B1; assay: self-cleavage kobs at 40 uM GlcN6P; higher = faster cleavage; RNA array
In short: as §1

| Variant | kcat (glucosamine-6-phosphate [1]) [s⁻¹] | self-cleavage kobs at 160 uM GlcN6P (glucosamine-6-phosphate [2]) [s⁻¹] | self-cleavage kobs at 640 uM GlcN6P (glucosamine-6-phosphate [3]) [s⁻¹] | self-cleavage kobs at 2500 uM GlcN6P (glucosamine-6-phosphate [4]) [s⁻¹] | self-cleavage kobs at 10000 uM GlcN6P (glucosamine-6-phosphate [5]) [s⁻¹] | KM (glucosamine-6-phosphate [6]) [µM] | self-cleavage kobs at 40 uM GlcN6P (glucosamine-6-phosphate [7]) [s⁻¹] |
| --- | --- | --- | --- | --- | --- | --- | --- |
| U47G C68A | 6.42e-05 ± 2.2e-05 | 4.97e-05 ± 2e-05 | 0.000121 ± 2.4e-05 | 9.07e-05 ± 1.6e-05 | 3.58e-05 ± 1.2e-05 | – | – |
| A14U G35A | – | – | – | – | – | 6.51 ± 1.5 | – |
| A14U A42G | 0.0156 ± 0.0054 | 0.00064 ± 0.00015 | 0.00347 ± 0.00055 | 0.00517 ± 0.001 | 0.0147 ± 0.0018 | 2710 ± 1300 | 0.000273 ± 3.1e-05 |
| A42U U47A | 0.00012 ± 2.9e-06 | – | 4.11e-05 ± 1.2e-05 | 8.23e-05 ± 1.3e-05 | 0.000106 ± 1.7e-05 | 1210 ± 91 | – |
| A42G A48C | 0.00074 ± 0.00011 | – | 9.68e-05 ± 2.1e-05 | 0.000276 ± 8.7e-05 | 0.000506 ± 7.8e-05 | 4500 ± 1200 | – |
| C16A A53G | 0.00159 ± 0.00057 | 0.000134 ± 3.8e-05 | 0.000374 ± 9.2e-05 | 0.000777 ± 0.00017 | 0.0017 ± 0.00029 | – | 7.66e-05 ± 1.7e-05 |
| G32A U49A | < 1e-05 | – | – | – | – | – | – |
| A15C G38U | – | – | – | – | – | 67.7 ± 27 | – |
| U55C C70G | < 1e-05 | – | – | – | – | – | < 1e-05 |
| A15C A39C | 0.00146 ± 0.00042 | 0.000119 ± 1.5e-05 | 0.000171 ± 2.6e-05 | 0.000622 ± 9.2e-05 | 0.00112 ± 8.5e-05 | 3400 ± 1700 | 2.08e-05 ± 6.5e-06 |
| G41A C50A C67G | – | – | – | – | < 1e-05 | – | < 1e-05 |
| G40A U47A | 0.00464 ± 0.00058 | – | 0.00126 ± 0.00024 | 0.0033 ± 0.00065 | 0.00398 ± 0.00077 | 1440 ± 270 | 0.000132 ± 2.1e-05 |
| C10A | < 1e-05 | – | – | – | < 1e-05 | 559 ± 95 | – |
| A12U U49A | – | < 1e-05 | – | – | – | – | < 1e-05 |
| G44U U56C | – | – | – | – | – | 4890 ± 1500 | – |
| G9U A48C C50G | – | – | – | – | – | 92.6 ± 7.4 | – |
| A52C U54A | 1.15e-05 ± 1.5e-06 | – | – | – | – | 368 ± 130 | – |
| A6U A48G | – | < 1e-05 | – | < 1e-05 | < 1e-05 | – | < 1e-05 |
| A6U C16A | 1.85e-05 ± 5.8e-06 | – | – | – | – | – | – |
| U55C U65G | 0.00367 ± 0.00064 | 0.000212 ± 5.2e-05 | 0.000908 ± 0.00016 | 0.00177 ± 0.0003 | 0.00288 ± 0.00054 | 2540 ± 680 | 4.04e-05 ± 1.8e-05 |
| G41C U55A | 8.46e-05 ± 5e-06 | – | – | 5.87e-05 ± 2e-05 | 7.36e-05 ± 2e-05 | 1280 ± 280 | < 1e-05 |

| Variant | kcat (glucosamine-6-phosphate [1]) [s⁻¹] | self-cleavage kobs at 160 uM GlcN6P (glucosamine-6-phosphate [2]) [s⁻¹] | self-cleavage kobs at 640 uM GlcN6P (glucosamine-6-phosphate [3]) [s⁻¹] | self-cleavage kobs at 2500 uM GlcN6P (glucosamine-6-phosphate [4]) [s⁻¹] | self-cleavage kobs at 10000 uM GlcN6P (glucosamine-6-phosphate [5]) [s⁻¹] | KM (glucosamine-6-phosphate [6]) [µM] | self-cleavage kobs at 40 uM GlcN6P (glucosamine-6-phosphate [7]) [s⁻¹] |
| --- | --- | --- | --- | --- | --- | --- | --- |
| A15U G37C C70G | 2.75e-05 ± 1.1e-05 | – | – | – | – | – | – |
| G13A U69G | 6.29e-05 ± 1.9e-05 | 4.26e-05 ± 1.5e-05 | 7.5e-05 ± 1.3e-05 | 6.99e-05 ± 1.7e-05 | – | – | – |
| A12G G13U | 9.52e-05 ± 1e-06 | – | 3.63e-05 ± 8.6e-06 | 6.89e-05 ± 1.1e-05 | 8.62e-05 ± 7.6e-06 | 1020 ± 43 | – |
| U45G C67A | 0.00845 ± 0.0014 | 0.000663 ± 0.00016 | 0.00177 ± 0.00033 | 0.00369 ± 0.001 | 0.00674 ± 0.0011 | 2670 ± 590 | 0.000114 ± 1.8e-05 |
| A12C U31A | 0.0133 ± 0.004 | 0.000363 ± 7.2e-05 | 0.00151 ± 0.00035 | 0.00434 ± 0.00085 | 0.00974 ± 0.0017 | 4520 ± 1700 | 0.000142 ± 1.7e-05 |
| A6U U45G | 0.000193 ± 3.9e-05 | < 1e-05 | – | – | 4.41e-05 ± 9.1e-06 | – | – |
| U65C C68G | – | – | – | – | – | 418 ± 130 | – |
| G62A U69A | 3.46e-05 ± 8.1e-06 | – | – | – | – | – | – |
| A6U C11G | – | – | – | – | – | 1370 ± 460 | – |
| G7U C16A G37A A53U C71A | 1.25e-05 ± 4.6e-06 | – | – | – | – | – | – |
| U57A C68A | 2.64e-05 ± 5.2e-06 | – | – | – | – | – | – |
| U69A C71G | 3.77e-05 ± 9.7e-06 | – | 5.27e-05 ± 1.5e-05 | 4.01e-05 ± 9.2e-06 | – | – | – |
| U46A C70U | 0.004 ± 0.0017 | 0.000346 ± 5.5e-05 | 0.00135 ± 0.00019 | 0.00206 ± 0.00026 | 0.00626 ± 0.00087 | – | 0.000188 ± 3.1e-05 |
| A14G U54C | 0.151 ± 0.0085 | 0.00536 ± 0.00096 | 0.0185 ± 0.0064 | – | 0.105 ± 0.042 | 4420 ± 270 | 0.00134 ± 0.00025 |
| A36U A64G U69A C71G | – | – | – | – | – | – | 6.16e-05 ± 2.9e-05 |
| G35U C67G | 1.19e-05 ± 2.3e-06 | – | – | < 1e-05 | – | – | – |
| G41C U56A | 0.000159 ± 4.4e-05 | – | 2.18e-05 ± 1e-05 | 0.000129 ± 3e-05 | 0.000121 ± 1.5e-05 | – | – |
| A39U U46G | 0.00673 ± 0.0011 | 0.000227 ± 6.1e-05 | 0.000968 ± 0.00018 | 0.0023 ± 0.00049 | 0.00476 ± 0.0014 | 4400 ± 920 | 5.61e-05 ± 1.4e-05 |
| C67G C70U | 0.000163 ± 2.9e-06 | – | 4.24e-05 ± 6e-06 | 9.79e-05 ± 8.3e-06 | 0.000137 ± 8.4e-06 | 1750 ± 88 | – |
| A6G G13A | < 1e-05 | < 1e-05 | < 1e-05 | – | – | – | < 1e-05 |
